This assay addresses FtsQ (Escherichia coli), P06136. The assay can be described thus: not stated; unpublished results (Luirink and den Blaauwen); method not given. To be noted: remark: other sources report otherwise.

The source of these data is paper PMC4462998.

As usually defined, the stoichiometry N is the number of molecules, sites or subunits per partner or assembly.

FtsQ (Escherichia coli), P06136, sequence (P06136 whole entry): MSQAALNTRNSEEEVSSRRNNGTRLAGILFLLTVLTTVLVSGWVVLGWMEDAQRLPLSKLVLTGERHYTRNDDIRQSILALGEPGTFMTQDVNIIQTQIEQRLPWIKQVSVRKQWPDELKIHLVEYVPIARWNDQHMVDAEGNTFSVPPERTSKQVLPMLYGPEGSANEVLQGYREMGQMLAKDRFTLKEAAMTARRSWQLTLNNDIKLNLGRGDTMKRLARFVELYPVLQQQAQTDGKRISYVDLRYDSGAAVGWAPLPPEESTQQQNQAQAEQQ

B1: FtsL, P0AEN4 1-121 (natural protein)
chain: MISRVTEALSKVKGSMGSHERHALPGVIGDDLLRFGKLPLCLFICIILTAVTVVTTAHHTRLLTAQREQLVLERDALDIEWRNLILEENALGDHSRVERIATEKLQMQHVDPSQENIVVQK
B1: the stoichiometry N was 1.
